{
  "source": "patent US20160114039A1",
  "about": "“TREATMENT OF POLYPOIDAL CHOROIDAL VASCULOPATHY” (BAYER HEALTHCARE LLC, priority 2013, published 2016)",
  "origin": "cited, not measured here",
  "tested_on": "symptomatic PCV",
  "details": "sixty-one Asian patients with symptomatic PCV; primary end point assessed at month 6",
  "data": [
    {"molecule": "ranibizumab (antibody, chains of the INN, looked up, V domains shown, Fab, anti-VEGF agent ranibizumab (Lucentis)) VH: EVQLVESGGGLVQPGGSLRLSCAASGYDFTHYGMNWVRQAPGKGLEWVGWINTYTGEPTYAADFKRRFTFSLDTSKSTAYLQMNSLRAEDTAVYYCAKYPYYYGTSHWYFDVWGQGTLVTVSS VL: DIQLTQSPSSLSASVGDRVTITCSASQDISNYLNWYQQKPGKAPKVLIYFTSSLHSGVPSRFSGSGSGTDFTLTISSLQPEDFATYYCQQYSTVPWTFGQGTKVEIK", "values": [
      {"measurement": "complete polyp regression", "result": 28.6, "unit": "%"}
    ]}
  ]
}
